These are literature values, as cited in publication PMC12609503.

For series [1], the target named is GnRH receptor (LN-CaP cells) (Homo sapiens) (UniProt P30968). The experiment in a line: cell binding assay.
Series [2] concerns the target GnRH receptor (pituitary membrane) (Rattus norvegicus) (UniProt P30969). The experiment in a line: radioligand saturation binding.
Chain of UniProt P30969 (P30969 whole entry): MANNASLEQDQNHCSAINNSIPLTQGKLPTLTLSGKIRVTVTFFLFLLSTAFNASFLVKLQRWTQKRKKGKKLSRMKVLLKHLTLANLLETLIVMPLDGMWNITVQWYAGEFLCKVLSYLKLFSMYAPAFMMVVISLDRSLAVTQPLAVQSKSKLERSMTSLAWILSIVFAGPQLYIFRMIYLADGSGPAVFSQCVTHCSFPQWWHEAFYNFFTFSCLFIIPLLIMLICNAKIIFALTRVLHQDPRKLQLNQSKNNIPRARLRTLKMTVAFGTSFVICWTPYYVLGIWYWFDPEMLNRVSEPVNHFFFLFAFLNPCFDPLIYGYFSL

Chain of UniProt P30968 (P30968 whole entry): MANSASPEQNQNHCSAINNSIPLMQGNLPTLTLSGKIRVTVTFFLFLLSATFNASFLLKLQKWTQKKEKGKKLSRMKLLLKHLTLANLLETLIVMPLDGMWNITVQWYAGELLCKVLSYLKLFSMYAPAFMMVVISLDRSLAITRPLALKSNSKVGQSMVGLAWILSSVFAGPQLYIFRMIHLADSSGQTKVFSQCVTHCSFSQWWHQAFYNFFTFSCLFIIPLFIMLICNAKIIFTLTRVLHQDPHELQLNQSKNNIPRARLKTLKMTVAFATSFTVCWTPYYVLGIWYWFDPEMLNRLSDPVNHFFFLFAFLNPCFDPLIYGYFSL

With “99mTc-HYNIC-GABA-DLys6-GnRH (from UniProt P01148)”, the Kd – broadly, the concentration at which binding is half-saturated – in series [1] is 0.089 µM. For the substance “99mTc-HYNIC-Ahx-DLys6-GnRH (from UniProt P01148)”, in series [1], the Kd was 0.042 µM. With 125I-LHRH (from UniProt P01148), the Kd in series [2] was 0.000435 µM.
